From article PMC2778132

Target: endogenous αIIbβ3 integrin receptor of activated platelets (human (endogenous in platelets)) (UniProt P08514)

With RGDS [RGDS peptide] as the binder, how does the reduction of adhesion of TRAP-activated platelets to fibrinogen-coated wells (1 µM peptide, compared to N-PTB^D66E) read?
The reduction of adhesion of TRAP-activated platelets to fibrinogen-coated wells (1 µM peptide, compared to N-PTB^D66E) was 7%.
